Assays:
[1] = target: T1, ataxin-3 fragment containing all three UIM sequences (residues 194-361, UIM_123) (human, UniProt P54252 194-361); test: NMR titration
[2] = target: T1, ataxin-3 fragment containing all three …; test: NMR titration; remark: listed apart in the source

T1 sequence (P54252 194-361): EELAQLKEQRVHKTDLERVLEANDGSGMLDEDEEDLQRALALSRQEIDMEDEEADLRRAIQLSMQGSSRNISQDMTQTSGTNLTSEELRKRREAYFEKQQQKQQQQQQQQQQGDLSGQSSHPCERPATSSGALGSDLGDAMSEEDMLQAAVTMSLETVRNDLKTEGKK

B1: human parkin ubiquitin-like domain (residues 1-77) (domain or fragment, UniProt O60260 1-77, looked up)
chain: MIVFVRFNSSHGFPVEVDSDTSIFQLKEVVAKRQGVPADQLRVIFAGKELRNDWTVQNCDLDQQSIVHIVQRPWRKG
- KD of each individual UIM (UIM1, UIM2, UIM3) in UIM_123 [1]: > 1000 µM
- Kd [2]: 236 ± 14 µM
